From patent US20180036405A1 (Regeneron, published 2018)
Substitutions are numbered along the chain they refer to. In names and notes the source's numbering stands.

B1: H1H153P (antibody, human IgG1, V domains shown)
VH: QVQLVESGGGVVQPGKSLRLSCAASGFTFSIYGMNWVRQAPGKGLDWVAVISDDGSNKDYVDSVRGRFTISRDNSKNTLYLQMNSLSAEDTAVYYCAKDRITGTHYYGLDVWGQGTTVTVSS
VL: DIQMTQSPSSLSASVGDRITITCRASQDIANYLAWFQQKPGNAPTSLIYAASILQSGVPSKFSGSGSGTDFTLTITSLQPEDFASYYCQQYNRKPWTFGRGTKVEIK
notes: Human IgG1 Fc (H1H)
B2: H1H171P (antibody, human IgG1, V domains shown)
VH: B1 VH with K16R, A40G, L109M
VL: B1 VL
notes: Human IgG1 Fc (H1H)
B3: H1H155P (antibody, human IgG1, V domains shown)
VH: QVQLVESGGGVVQPGRSLRLSCAASGFTFSIYGMHWVRQAPGKGLEWVTVISDDGSKKYYVDSVKGRFTLSRDNSKNTLYLQMNSLRAEDTAVYYCARDRITGTNWYGMDVWGQGTTVTVSS
VL: DIQMTQSPSSLSASVGDRVTITCRASQDISNYLAWFQQKPGKAPKSLIFAASSLQSGGPSKFSGSGSGTDFTLTISSLQPEDFATYYCQQYNRYPFTFGPGTKVDIK
notes: Human IgG1 Fc (H1H)
B4: H1H145P (antibody, human IgG1, V domains shown)
VH: EVQLVESGGGVVQPGGSLRLSCAASGFTFDDYAMHWVRQAPGKGLEWVSLISGDGGSTYYADSVKGRFTISRDNSKNSLYLQMNSLRTEDTALYYCAKNYDSSGYYYPYYYYYGMDVWGQGTTVTVSS
VL: not shown
notes: Human IgG1 Fc (H1H)
B5: H1H157P (antibody, human IgG1, V domains shown)
VH: QVQLVESGGGVVQPGRSLRLTCKASGFTFSIYGINWVRQASGKGLDWVAVISDDGSDKKYADSVKGRFTISRDNSKNTVYLEMSRLRSEDTAVYFCAKDRFTGNHYYGMDVWGQGTTVTVSS
VL: DIQMTQSPSSLSASVGDRVSITCRASQDISDYLAWFQQKPGKAPKSLIYAASILQNGVPSRFSGSGSGTDFTLTISSLQPEDFALYYCHQYNRFPWTFGQGTKVEIK
notes: Human IgG1 Fc (H1H)
B6: H1H158P (antibody, human IgG1, V domains shown)
VH: QVQLVESGGGVVQPGGSLRLSCAASGFTFSIYGIHWVRQAPGKGLEWVAVISDDGSNKKYADSVKGRFTISRDNSKNTLYLQMNSLRAEDTAIFYCAKDRITGTHYYGMDVWGQGTTVTVSS
VL: B5 VL with D31N, I53S, N56S, R61K, T69I, D70E, A84S, L85T
notes: Human IgG1 Fc (H1H)
B7: H1H136P (antibody, human IgG1, V domains shown)
VH: EVQLVESGGGLVQPGGSLRLSCAASGFTFSSYDMSWVRQAPGKGLEWVSGISGSGDSTYYAGSVKGRFTISRDNSKNTLYLQMNSLRAEDTAVYYCAYDYSNYWDHYGMDVWGQGTTVTVSS
VL: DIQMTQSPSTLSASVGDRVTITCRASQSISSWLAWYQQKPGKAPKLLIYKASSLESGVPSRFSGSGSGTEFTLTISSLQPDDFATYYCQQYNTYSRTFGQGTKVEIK
notes: Human IgG1 Fc (H1H)

These binders were tested against T1, human monomeric EGFR (EGFR.mmh) (human, UniProt P00533 25-647) (assay: SPR 37C, mAb captured by anti-human Fc, EGFR.mmh analyte).
T1 construct: Soluble monomeric EGFR construct
Method: (§1) Different concentrations of human monomeric (EGFR.mmh; SEQ ID NO:386) and dimeric (EGFR.mFc; SEQ ID NO:387) proteins were injected over the anti-EGFR monoclonal antibody captured surface at a flow rate of 50 μI/min. Antibody-antigen association was monitored for 4-5 minutes while dissociation of antigen from the captured monoclonal antibody surface was monitored for 10 min. Kinetic association (kₐ) and dissociation (kd) rate constants were determined by processing and fitting the data to a 1:1 binding model using Scrubber 2.0 curve fitting software.

Row | Kd [nM] | koff [s⁻¹] | kon [M⁻¹ s⁻¹] | t1/2 [min] | binding result | Binder
1 | 3.09 | 0.000235 | 76100 | 49 | – | B1
2 | 14.2 | 0.00113 | 79400 | 10 | – | B2
3 | 0.962 | 0.000169 | 176000 | 68 | – | B3
4 | 1.43 | 0.000195 | 137000 | 59 | – | B4
5 | – | – | – | – | no binding | B5
6 | 5.9 | 0.000773 | 131000 | 15 | – | B6
7 | – | – | – | – | no binding | B7

Each binder was assayed against T2, human dimeric EGFR (EGFR.mFc) (human) (assay: SPR 37C, mAb captured by anti-human Fc, EGFR.mFc analyte).
T2 construct: Soluble dimeric EGFR construct
Method: as §1

Row | Kd [nM] | koff [s⁻¹] | kon [M⁻¹ s⁻¹] | t1/2 [min] | binding result | Binder
8 | 0.0351 | 8.23e-06 | 234000 | 1400 | – | B1
9 | 0.103 | 3.48e-05 | 339000 | 332 | – | B2
10 | 0.321 | 0.000106 | 329000 | 109 | – | B3
11 | 0.232 | 5.86e-05 | 252000 | 197 | – | B4
12 | – | – | – | – | no binding | B5
13 | 0.0241 | 9.84e-06 | 408000 | 1170 | – | B6
14 | – | – | – | – | no binding | B7

What follows are binders tested against EGFR on A431 epidermoid carcinoma cells (human, UniProt P00533 25-1210) (assay: cell-based or functional assay).

Row | ADCC EC50 [Molar] | Binder | Maximum Cell Killing (%)
15 | 2.65e-11 | B1 | 31
16 | 8.94e-13 | B2 | 27
17 | 1.67e-11 | B3 | 30
18 | – | B4 | 0
19 | 2.27e-13 | B5 | 36
20 | 2.32e-12 | B6 | 28
21 | 1.49e-09 | B7 | 27
